Bridges are numbered along the chain shown (N, C = ends). [ ]: non-standard residue; d: D form.
What was measured:
Assay in all cases: cell-based or functional assay
[1] = target: Coagulation Factor Xa, from human plasma (human, UniProt P00742 41-488, limits assumed)
[2] = target: T1, Elastase from human neutrophils (human, UniProt P08246 30-247, limits assumed)
T1 sequence (looked up): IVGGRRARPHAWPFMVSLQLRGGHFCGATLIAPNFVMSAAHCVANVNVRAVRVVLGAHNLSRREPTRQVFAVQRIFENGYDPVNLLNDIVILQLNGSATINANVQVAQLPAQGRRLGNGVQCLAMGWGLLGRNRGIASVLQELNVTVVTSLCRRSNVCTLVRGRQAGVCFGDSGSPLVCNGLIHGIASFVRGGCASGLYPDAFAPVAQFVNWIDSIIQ

[3] = target: Chymotrypsin, from human pancreas (human, UniProt P17538 19-263)
Chymotrypsin, from human pancreas, sequence (P17538 19-263): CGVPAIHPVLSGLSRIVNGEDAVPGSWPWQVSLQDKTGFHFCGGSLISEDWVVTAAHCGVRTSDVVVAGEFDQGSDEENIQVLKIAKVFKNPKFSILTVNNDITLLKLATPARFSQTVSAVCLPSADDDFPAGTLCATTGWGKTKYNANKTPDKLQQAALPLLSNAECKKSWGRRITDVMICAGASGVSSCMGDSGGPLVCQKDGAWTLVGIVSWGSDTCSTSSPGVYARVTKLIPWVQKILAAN

[4] = target: Tryptase, from human lung (human, UniProt Q15661 31-275, limits assumed)
Tryptase, from human lung, sequence (Q15661 31-275 limits assumed): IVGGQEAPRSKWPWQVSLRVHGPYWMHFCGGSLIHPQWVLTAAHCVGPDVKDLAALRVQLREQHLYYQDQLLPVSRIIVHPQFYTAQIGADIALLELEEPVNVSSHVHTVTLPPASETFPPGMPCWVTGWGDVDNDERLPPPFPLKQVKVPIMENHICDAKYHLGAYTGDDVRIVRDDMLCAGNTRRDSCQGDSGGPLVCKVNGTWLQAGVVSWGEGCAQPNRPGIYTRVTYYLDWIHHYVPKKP

[5] = target: Thrombin, from Human Plasma, high activity (human, UniProt P00734 328-622)
[6] = target: Trypsin, Iodination grade, from human pancreas (human, UniProt P07477 24-247)
Chymase, from human skin = target: T2, Chymase, from human skin (human, UniProt P23946 22-247)
T2 sequence (looked up): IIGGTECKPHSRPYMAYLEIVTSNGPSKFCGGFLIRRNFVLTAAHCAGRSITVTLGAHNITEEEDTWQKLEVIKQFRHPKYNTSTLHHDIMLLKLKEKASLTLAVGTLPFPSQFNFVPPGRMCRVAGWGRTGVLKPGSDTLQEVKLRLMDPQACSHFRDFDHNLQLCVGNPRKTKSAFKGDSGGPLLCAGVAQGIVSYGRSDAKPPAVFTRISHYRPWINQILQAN

[7] = target: Urokinase from human urine (human, UniProt P00749 21-431, limits assumed)
[8] = target: T3, CathepsinG, from human neutrophils (human, UniProt P08311 21-244)
T3 sequence (looked up): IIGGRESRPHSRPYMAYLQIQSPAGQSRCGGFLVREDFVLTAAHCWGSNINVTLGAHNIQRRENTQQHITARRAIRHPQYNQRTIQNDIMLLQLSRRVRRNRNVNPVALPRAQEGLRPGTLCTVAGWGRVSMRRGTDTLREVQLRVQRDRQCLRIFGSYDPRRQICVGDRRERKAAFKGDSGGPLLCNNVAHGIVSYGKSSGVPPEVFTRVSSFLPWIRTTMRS

Coagulation Factor Xa, from human plasma, sequence (P00742 41-488 limits assumed): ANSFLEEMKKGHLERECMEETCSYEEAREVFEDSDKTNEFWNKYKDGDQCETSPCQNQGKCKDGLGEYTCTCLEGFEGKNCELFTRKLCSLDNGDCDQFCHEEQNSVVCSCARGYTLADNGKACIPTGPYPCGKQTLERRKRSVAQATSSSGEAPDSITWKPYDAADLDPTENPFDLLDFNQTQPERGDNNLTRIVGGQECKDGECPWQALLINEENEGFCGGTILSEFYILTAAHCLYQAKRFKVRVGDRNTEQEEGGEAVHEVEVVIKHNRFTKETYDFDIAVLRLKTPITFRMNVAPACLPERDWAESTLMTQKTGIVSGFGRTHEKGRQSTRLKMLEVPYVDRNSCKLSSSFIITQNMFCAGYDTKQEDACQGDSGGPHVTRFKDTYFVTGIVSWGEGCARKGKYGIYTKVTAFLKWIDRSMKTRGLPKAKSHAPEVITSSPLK

B1: Example 82 (peptide)
peptide: XCTASXPPQCY
HELM: PEPTIDE1{[Nle].C.T.A.S.[Cha].P.P.Q.C.Y.[dP].P}$PEPTIDE1,PEPTIDE1,2:R3-10:R3|PEPTIDE1,PEPTIDE1,1:R1-13:R2$$$V2.0
SMILES: CCCC[C@@H]1NC(=O)[C@@H]2CCCN2C(=O)[C@H]2CCCN2C(=O)[C@H](Cc2ccc(O)cc2)NC(=O)[C@@H]2CSSC[C@H](NC1=O)C(=O)N[C@@H]([C@@H](C)O)C(=O)N[C@@H](C)C(=O)N[C@@H](CO)C(=O)N[C@@H](CC1CCCCC1)C(=O)N1CCC[C@H]1C(=O)N1CCC[C@H]1C(=O)N[C@@H](CCC(N)=O)C(=O)N2
[1]
  % inhibition at 100 µM: 15.3%
[2]
  IC50: 18 nmol
[3]
  % inhibition at 100 µM: 72.9%
[4]
  % inhibition at 100 µM: 44.5%

B2: Example 58 (peptide)
peptide: ICTKSDPPXCR
HELM: PEPTIDE1{I.C.T.K.S.D.P.P.[Cha].C.R.[dP].P}$PEPTIDE1,PEPTIDE1,2:R3-10:R3|PEPTIDE1,PEPTIDE1,1:R1-13:R2$$$V2.0
SMILES: CC[C@H](C)[C@@H]1NC(=O)[C@@H]2CCCN2C(=O)[C@H]2CCCN2C(=O)[C@H](CCCNC(=N)N)NC(=O)[C@@H]2CSSC[C@H](NC1=O)C(=O)N[C@@H]([C@@H](C)O)C(=O)N[C@@H](CCCCN)C(=O)N[C@@H](CO)C(=O)N[C@@H](CC(=O)O)C(=O)N1CCC[C@H]1C(=O)N1CCC[C@H]1C(=O)N[C@@H](CC1CCCCC1)C(=O)N2
[1]
  % inhibition at 100 µM: 25%
[5]
  % inhibition at 100 µM: 28%
[6]
  % inhibition at 100 µM: 97%
[2]
  IC50: > 100000 nmol
Chymase, from human skin
  % inhibition at 100 µM: 44.1%
[7]
  % inhibition at 100 µM: 6.7%
[3]
  % inhibition at 100 µM: 0%
[8]
  IC50: 47.5 nmol

B3: Example 30 (peptide)
peptide: XCTKSDPPICY
HELM: PEPTIDE1{[O=C([C@H](CCc1ccccc1)N[*:1])[*:2]].C.T.K.S.D.P.P.I.C.Y.[dP].P}$PEPTIDE1,PEPTIDE1,2:R3-10:R3|PEPTIDE1,PEPTIDE1,1:R1-13:R2$$$V2.0
SMILES: CC[C@H](C)[C@@H]1NC(=O)[C@@H]2CCCN2C(=O)[C@@H]2CCCN2C(=O)[C@H](CC(=O)O)NC(=O)[C@H](CO)NC(=O)[C@H](CCCCN)NC(=O)[C@H]([C@@H](C)O)NC(=O)[C@@H]2CSSC[C@H](NC1=O)C(=O)N[C@@H](Cc1ccc(O)cc1)C(=O)N1CCC[C@@H]1C(=O)N1CCC[C@H]1C(=O)N[C@@H](CCc1ccccc1)C(=O)N2
[1]
  % inhibition at 100 µM: 3%
[5]
  % inhibition at 100 µM: 2%
[6]
  % inhibition at 100 µM: 98%
[2]
  IC50: 49900 nmol
Chymase, from human skin
  % inhibition at 100 µM: 0%
[7]
  % inhibition at 100 µM: 9%
[3]
  % inhibition at 100 µM: 49%
[8]
  IC50: 39 nmol

## cyclo(ICTKSDPAICR[dP]P) (disulfide 2-10) [Example 52]
[1]
  % inhibition at 100 µM: 6%
[5]
  % inhibition at 100 µM: 8.7%
[2]
  IC50: > 100000 nmol
Chymase, from human skin
  % inhibition at 100 µM: 42.3%
[7]
  % inhibition at 100 µM: 5.4%
[3]
  % inhibition at 100 µM: 0%
[8]
  IC50: 52 nmol
[4]
  % inhibition at 100 µM: 84.2%

## cyclo(ICTKSDPAICR[dP]P) (disulfide 2-10) [Example 14]
[1]
  % inhibition at 100 µM: 6%
[5]
  % inhibition at 100 µM: 8.7%
[2]
  IC50: > 100000 nmol
Chymase, from human skin
  % inhibition at 100 µM: 42.3%
[7]
  % inhibition at 100 µM: 5.4%
[3]
  % inhibition at 100 µM: 0%
[8]
  IC50: 52 nmol
[4]
  % inhibition at 100 µM: 84.2%

B4: Example 60 (peptide)
peptide: FCTXSDPPICY
HELM: PEPTIDE1{F.C.T.[Nle].S.D.P.P.I.C.Y.[dP].P}$PEPTIDE1,PEPTIDE1,2:R3-10:R3|PEPTIDE1,PEPTIDE1,1:R1-13:R2$$$V2.0
SMILES: CCCC[C@@H]1NC(=O)[C@H]([C@@H](C)O)NC(=O)[C@@H]2CSSC[C@H](NC(=O)[C@H]([C@@H](C)CC)NC(=O)[C@@H]3CCCN3C(=O)[C@@H]3CCCN3C(=O)[C@H](CC(=O)O)NC(=O)[C@H](CO)NC1=O)C(=O)N[C@@H](Cc1ccc(O)cc1)C(=O)N1CCC[C@@H]1C(=O)N1CCC[C@H]1C(=O)N[C@@H](Cc1ccccc1)C(=O)N2
[1]
  % inhibition at 100 µM: 11%
[5]
  % inhibition at 100 µM: 0%
[6]
  % inhibition at 100 µM: 90%
[2]
  IC50: > 100000 nmol
Chymase, from human skin
  % inhibition at 100 µM: 60%
[7]
  % inhibition at 100 µM: 9%
[3]
  % inhibition at 100 µM: 4%
[8]
  IC50: 38 nmol

B5: Example 23 (peptide)
peptide: FCTXSDPPICY
HELM: PEPTIDE1{F.C.T.[Nle].S.D.P.P.I.C.Y.[dP].P}$PEPTIDE1,PEPTIDE1,2:R3-10:R3|PEPTIDE1,PEPTIDE1,1:R1-13:R2$$$V2.0
SMILES: CCCC[C@@H]1NC(=O)[C@H]([C@@H](C)O)NC(=O)[C@@H]2CSSC[C@H](NC(=O)[C@H]([C@@H](C)CC)NC(=O)[C@@H]3CCCN3C(=O)[C@@H]3CCCN3C(=O)[C@H](CC(=O)O)NC(=O)[C@H](CO)NC1=O)C(=O)N[C@@H](Cc1ccc(O)cc1)C(=O)N1CCC[C@@H]1C(=O)N1CCC[C@H]1C(=O)N[C@@H](Cc1ccccc1)C(=O)N2
[1]
  % inhibition at 100 µM: 11%
[5]
  % inhibition at 100 µM: 0%
[6]
  % inhibition at 100 µM: 90%
[2]
  IC50: > 100000 nmol
Chymase, from human skin
  % inhibition at 100 µM: 60%
[7]
  % inhibition at 100 µM: 9%
[3]
  % inhibition at 100 µM: 4%
[8]
  IC50: 38 nmol

B6: Example 20 (peptide)
peptide: ICTKSDPPXCR
HELM: PEPTIDE1{I.C.T.K.S.D.P.P.[Cha].C.R.[dP].P}$PEPTIDE1,PEPTIDE1,2:R3-10:R3|PEPTIDE1,PEPTIDE1,1:R1-13:R2$$$V2.0
SMILES: CC[C@H](C)[C@@H]1NC(=O)[C@@H]2CCCN2C(=O)[C@H]2CCCN2C(=O)[C@H](CCCNC(=N)N)NC(=O)[C@@H]2CSSC[C@H](NC1=O)C(=O)N[C@@H]([C@@H](C)O)C(=O)N[C@@H](CCCCN)C(=O)N[C@@H](CO)C(=O)N[C@@H](CC(=O)O)C(=O)N1CCC[C@H]1C(=O)N1CCC[C@H]1C(=O)N[C@@H](CC1CCCCC1)C(=O)N2
[1]
  % inhibition at 100 µM: 25%
[5]
  % inhibition at 100 µM: 28%
[6]
  % inhibition at 100 µM: 97%
[2]
  IC50: > 100000 nmol
Chymase, from human skin
  % inhibition at 100 µM: 44.1%
[7]
  % inhibition at 100 µM: 6.7%
[3]
  % inhibition at 100 µM: 0%
[8]
  IC50: 48 nmol

B7: Example 84 (peptide)
peptide: XCTASXPPQCY
HELM: PEPTIDE1{[Nle].C.T.A.S.[O=C([C@@H](N[*:1])C1CCCCC1)[*:2]].P.P.Q.C.Y.[dP].P}$PEPTIDE1,PEPTIDE1,2:R3-10:R3|PEPTIDE1,PEPTIDE1,1:R1-13:R2$$$V2.0
SMILES: CCCC[C@@H]1NC(=O)[C@@H]2CCCN2C(=O)[C@H]2CCCN2C(=O)[C@H](Cc2ccc(O)cc2)NC(=O)[C@@H]2CSSC[C@H](NC1=O)C(=O)N[C@@H]([C@@H](C)O)C(=O)N[C@@H](C)C(=O)N[C@@H](CO)C(=O)N[C@@H](C1CCCCC1)C(=O)N1CCC[C@H]1C(=O)N1CCC[C@H]1C(=O)N[C@@H](CCC(N)=O)C(=O)N2
[1]
  % inhibition at 100 µM: 13.3%
[5]
  % inhibition at 100 µM: 20.6%
[6]
  % inhibition at 100 µM: 10.8%
[2]
  IC50: 18 nmol
Chymase, from human skin
  % inhibition at 100 µM: 0%
[7]
  % inhibition at 100 µM: 10.4%
[8]
  IC50: 20200 nmol
[4]
  % inhibition at 100 µM: 4.2%

B8: Example 57 (peptide)
peptide: ICTKSDPPXCR
HELM: PEPTIDE1{I.C.T.K.S.D.P.P.[Nle].C.R.[dP].P}$PEPTIDE1,PEPTIDE1,2:R3-10:R3|PEPTIDE1,PEPTIDE1,1:R1-13:R2$$$V2.0
SMILES: CCCC[C@@H]1NC(=O)[C@@H]2CCCN2C(=O)[C@@H]2CCCN2C(=O)[C@H](CC(=O)O)NC(=O)[C@H](CO)NC(=O)[C@H](CCCCN)NC(=O)[C@H]([C@@H](C)O)NC(=O)[C@@H]2CSSC[C@H](NC1=O)C(=O)N[C@@H](CCCNC(=N)N)C(=O)N1CCC[C@@H]1C(=O)N1CCC[C@H]1C(=O)N[C@@H]([C@@H](C)CC)C(=O)N2
[1]
  % inhibition at 100 µM: 32%
[5]
  % inhibition at 100 µM: 11%
[6]
  % inhibition at 100 µM: 94%
[2]
  IC50: > 100000 nmol
Chymase, from human skin
  % inhibition at 100 µM: 26.9%
[7]
  % inhibition at 100 µM: 4%
[3]
  % inhibition at 100 µM: 0%
[8]
  IC50: 41 nmol

Source: patent US20140213531A1 (POLYPHOR, published 2014)
